Measurements taken from patent US8673594B2, “Methods for stimulating nervous system regeneration and repair by regulating arginase I and polyamine synthesis” (Research Foundation of City University of New York, priority 2000, dated 2014).
“Also recorded” adds a separate entry of the source.

What was measured:
[1] = tested on: cerebellar neurons on MAG-expressing CHO cells; assay: Neurite outgrowth of cerebellar neurons on MAG-expressing or control CHO cells; assay type: cell-based; settings: for block of inhibition of neurite growth by MAG after priming: neurons primed overnight with neurotrophin 200 ng/ml, then transferred to CHO monolayers
Protocol: FIG. 2: Improved Axonal Growth on MAG Induced By Elevating cAMP Levels is Transcription-Dependent. (A) Isolated cerebellar neurons at a density of 20,000 neurons per well were plated onto a monolayer of either MAG-expressing Chinese hamster ovary (CHO) cells (striped bars) or control CHO cells (black bars) and cultured overnight before being fixed and immunostained for GAP43 to visualize the neurites. The length of the longest neurite per neuron, from 180-200 neurons, was measured and results are the average length+/−SEM. Where indicated, dibutyryl cAMP (dbcA) at 1 mM in the presence or absence of the inhibitor of transcription, 5,6-dichloro-1-b-D-ribofuranosylbenzimidazole (DRB) at 5 μM, was added to each culture. (B) Cerebellar neurons (1×10^6) were plated onto poly-L-lysine and cultured overnight with brain-derived neurotrophic factor (BDNF) at 200 ng/ml, (termed priming) in the presence or absence of DRB at 5 μM, before being transferred to the CHO cell monolayers.
FIG. 6: An Ornithine Decarboxylase (ODC) Inhibitor Abrogates the Blocking Effect of dbcAMP on the Inhibition of Axonal Outgrowth by MAG and Myelin. […] The longest neurite from at least 180-200 neurons were measured. Results are shown as the mean neurite length+/−SEM.
(§1) After further incubation, neurons were fixed and immunostained for GAP43. The longest neurite from each neuron for 180-200 neurons were measured. Results are shown as the mean neurite length+/−SEM.
FIG. 8: An Inhibitor Of ODC Blocks The Priming Effects Of GDNF On The Inhibition By MAG. […] After further incubation, neurons were fixed and immunostained for GAP43. The longest neurite from each neuron for 180-200 neurons were measured. Results are shown as the mean neurite length±SEM.
Primed neurons were transferred to either MAG-expressing or control CHO cells (A) or a substrate of CNS myelin (B) for further incubation. Neurons were then fixed and immunostained for GAP43. The longest neurite from each neuron was measured for 180-200 neurons. Results are shown as the percentage of control. […]
Neurons were isolated essentially as described in Doherty at al., Nature, 343, pp. 464-66 (1990); Neuron, 5, pp. 209-19 (1990); and Kleitman at al., Culturing Nerve Cells, pp. 337-78, MIT Press, Cambridge, Mass./London, England (G. Banker and K Goslin, Eds.) (1991). Briefly, for animals up to nine days of age, the cerebellum, from two animals were removed and combined in 5 ml of 0.025% trypsin in PBS, triturated, and incubated for a further 10 minutes (min.) at 37° C. Trypsinization was stopped by addition of 5 ml DMEM containing 10% fetal calf serum (FCS) and cells were centrifuged at 800 rpm for 6 min. […] For older DRG neurons, ganglia were removed from two animals and incubated in 5 ml of Sat medium containing 0.025% trypsin and 0.15% collagenase type I (Worthington) for 30 min. at 37° C. The ganglia were triturated with a fire-polished Pasteur pipette. Trypsinization was stopped by adding 5 ml of DMEM containing 10% FCS, centrifuged at 800 rpm for 6 min, and resuspended in 2 ml of SAT (DeBellard et al., 1996). Cells were counted with a Coulter counter.
Chinese hamster ovary (CHO) cells deficient in the dihydrofolate reductase (dhfr) gene (Urlaub and Chasin, Proc. Natl, Acad, Sci. 77, pp. 4216-20 (1980)) were transfected with a MAG-cDNA expression plasmid with the dhfr gene and the L-MAG cDNA, cells with multiple copies of dbfr were selected by growing in increasing concentrations of methotrexate, and the expression of MAG by individual transfected CHO cell lines characterized as described in Mukhopadhyay et al., Neuron, 13, pp. 757-67 (1994), which is incorporated herein by reference. The MAG-expressing transfected CHO cell line) (“CHO-MAG2”) in that publication was deposited on Jun. 27, 1996 with the American Type Culture Collection (ATCC) (Rockville, Md.) according to the provisions of the Budapest Treaty, and was assigned the ATCC accession number designated: ATCC CRL-12145. […]

[2] = tested on: cerebellar neurons on purified CNS myelin; assay: Neurite outgrowth of cerebellar neurons on purified CNS myelin substrate; assay type: cell-based; settings: for block of myelin-dependent inhibition in the presence of a transcriptional inhibitor: dbcAMP 1 mM or BDNF 200 ng/ml priming, with DRB 5 μM; for block of inhibition by myelin after priming: neurons primed with neurotrophin
Protocol: Isolated cerebellar neurons at a density of 20,000 neurons per well were plated onto a substrate of purified CNS myelin and cultured overnight before being fixed and immunostained for GAP43. The length of the longest neurite per neuron from 180-200 neurons was measured and results are the average length+/−SEM. Where indicated, dibutyryl cAMP (dbcA) at 1 mM in the presence or absence of the inhibitor of transcription, 5,6-dichloro-1-b-D-ribofuranosylbenzimidazole (DRB) at 5 μM, was added to each culture. (B) Cerebellar neurons (1×10^6) were plated onto poly-L-lysine and cultured overnight with brain-derived neurotrophic factor (BDNF) at 200 ng/ml, (termed priming) in the presence or absence of DRB at 5 μM, before being transferred to the CNS myelin substrate.
The longest neurite from at least 180-200 neurons were measured. Results are shown as the mean neurite length+/−SEM.
as §1
Primed neurons were transferred to either MAG-expressing or control CHO cells (A) or a substrate of CNS myelin (B) for further incubation. Neurons were then fixed and immunostained for GAP43. The longest neurite from each neuron was measured for 180-200 neurons.
Trypsinization was stopped by addition of 5 ml DMEM containing 10% fetal calf serum (FCS) and cells were centrifuged at 800 rpm for 6 min. […] The ganglia were triturated with a fire-polished Pasteur pipette. […] Cells were counted with a Coulter counter.
The neurite outgrowth assay was carried out by adding 5×10^4 neurons to the immobilized myelin substrate or 2×10^4 neurons to the CHO cell monolayers. Briefly, confluent monolayers of control and MAG-expressing CHO cells were established over a 24-hour (h) period in individual chambers of an 8-well tissue culture slide (Lab-Tek). […] Culture medium was SATO containing 2% FCS.
GAP43 antibody was detected by staining with Texas Red and arginase antibody was detected with anti-biotin secondary antibody followed by Texas Red-conjugated streptavidin.
After periods of time as indicated, the co-cultures were fixed for 30 min with 4% paraformaldehyde and permeabilized with ice-cold methanol for 2 min. […] After three more washes, the slides were mounted in Permfluor (Baxter) and viewed with a Zeiss fluorescent microscope. The length of the longest neurite for each GAP43-positive neuron was determined using the Biological Detection System image analysis program (Pittsburgh).

| Molecule | block of inhibition of neurite growth by MAG ([1]; agent added directly to the co-culture (dbcAMP 1 mM), overnight) | block of inhibition of neurite growth by myelin ([2]; dbcAMP 1 mM added directly to the culture) | block of myelin-dependent inhibition in the presence of a transcriptional inhibitor [2] | block of inhibition of neurite growth by MAG after priming [1] | block of inhibition by myelin after priming [2] |
| --- | --- | --- | --- | --- | --- |
| CCCC(=O)Nc1ncnc2c1ncn2[C@@H]1O[C@@H]2COP(=O)(O)O[C@H]2[C@H]1OC(=O)CCC [dbcAMP, dibutyryl cAMP] | blocks inhibition of neuronal growth by MAG; also recorded: blocks the inhibition of neurite growth by MAG | blocks the inhibition of neurite growth | completely lost | – | – |
| GDNF: glial cell line-derived neurotrophic factor (protein, UniProt P39905 78-211, looked up) Glial cell line-derived …: SPDKQMAVLPRRERNRQAAAANPENSRGKGRRGQRGKNRGCVLTAIHLNVTDLGLGYETKEELIFRYCSGSCDAAETTYDKILKNLSRNRRLVSDKVGQACCRPIAFDDDLSFLDDNLVYHILRKHSAKRCGCI | – | – | – | overcomes inhibition of regeneration by MAG and myelin | overcomes inhibition of regeneration by MAG and myelin |
| BDNF: Brain-derived neurotrophic factor, Trk-family neurotrophin (protein, UniProt P23560 19-247, looked up) Neurotrophic factor BDNF …: APMKEANIRGQGGLAYPGVRTHGTLESVNGPKAGSRGLTSLADTFEHVIEELLDEDQKVRPNEENNKDADLYTSRVMLSSQVPLEPPLLFLLEEYKNYLDAANMSMRVRRHSDPARRGELSVCDSISEWVTAADKKTAVDMSGGTVTVLEKVPVSKGQLKQYFYETKCNPMGYTKEGCRGIDKRHWNSQCRTTQSYVRALTMDSKKRIGWRFIRIDTSCVCTLTIKRGR | – | – | completely lost | blocks inhibition of neuronal growth by MAG; also recorded: blocked the inhibition by MAG | overcomes inhibition of regeneration by MAG and myelin |
